Results: patent KR20200067522A (dated 2020)

Assays:
[1] = target: T1, CRM 197 (Cross-reactive material 197) (Corynebacterium diphtheriae C7 (β197) …, UniProt P00588 33-567); test: BLI (Octet Red), CRM197 in two-fold dilutions of 50 to 3.13 nM
T1 construct: mature; Purified to more than 95% purity from the fermentation supernatant

CRM 197 의 A 단편(21kDa) = target: T2, CRM 197 의 A 단편(21kDa) (Corynebacterium diphtheriae C7 (β197) …, UniProt P00588 33-225); test: western blot of trypsin/DTT-cleaved CRM197
T2 construct: domain: A 단편(21kDa); Band on a reducing SDS-PAGE / western blot after trypsin digestion

B1: 단일클론항체 3F9 (인간 IgG로 전환) (antibody, V domains shown)
VH: EVQLVESGGGLVQPGGSLRLSCAASGFTFSDYAMSWVRQAPGKGLEWVSAISSSSGNKYYADSVKGRFTISRDNSKNTLYLQMNSLRAEDTAVYYCAKLGVRETLSWYFDLWGQGTLVTVSS
VL: DIQMTQSPSSLSASVGDRVTITCRASQSISNYLNWYQQKPGKAPKLLIYAASRLQSGVPSRFSGSGSGTDFTLTISSLQPEDFATYYCQQSYSFPWTFGQGTKVEIK
notes: Human IgG made from a Fab of a human synthetic Fab library; kappa light chain is only implied by the anti-human kappa ELISA
Kd [1]: 4.45 nM | binding result (CRM 197 의 A 단편(21kDa)): no binding
